Source: US20250121075A1, “ALPHA-FETOPROTEIN BIOCONJUGATES FOR DISEASE TREATMENT” (priority 2021, published 2025)
Where a chain is given by its changes, count along the chain named.

What was measured:
[1] = molecular target: alpha-fetoprotein (AFP) receptor (AFPR) (human); test: AF-647 labeled rhAFP incubated with OVCAR-3 cells at 37 C for 0.5, 2 and 5 h, plate reader fluorescence
[2] = molecular target: alpha-fetoprotein (AFP) receptor (AFPR) (human); test: AF-647 labeled rhAFP incubated with MCF7 cells at 37 C for 0.5, 2 and 5 h, plate reader fluorescence
[3] = molecular target: alpha-fetoprotein (AFP) receptor (AFPR) (human); test: AF-647 labeled rhAFP incubated with H522 cells at 37 C for 0.5, 2 and 5 h, plate reader fluorescence
[4] = molecular target: alpha-fetoprotein (AFP) receptor (AFPR) (human); test: AF-647 labeled rhAFP incubated with COLO 205 cells at 37 C for 0.5, 2 and 5 h, plate reader fluorescence
[5] = molecular target: alpha-fetoprotein (AFP) receptor (AFPR) (human); test: AF-647 labeled rhAFP incubated with SKOV-3 cells at 37 C for 0.5, 2 and 5 h, plate reader fluorescence
[6] = molecular target: alpha-fetoprotein (AFP) receptor (AFPR) (human); test: AF-647 labeled rhAFP incubated with U-937 cells at 37 C for 0.5, 2 and 5 h, plate reader fluorescence
[7] = molecular target: alpha-fetoprotein (AFP) receptor (AFPR) (human); test: AF-647 labeled rhAFP incubated with MOLT-4 cells at 37 C for 0.5, 2 and 5 h, plate reader fluorescence
[8] = tested on: MCF-7; test: Cytotoxicity of bioconjugates of varying DPR (Series 1); type: cell-based, human
Description: (§1) A series of bioconjugates containing DM1, DM3, DM4 or ABZ981 synthesized under varying reaction conditions, resulting in different average DPRs. The cytotoxicity of these bioconjugates were evaluated in vitro in a panel of tumor cell lines (leukemia, breast, colorectal, ovarian and lung).

[9] = tested on: U937; test: as above; type: cell-based, human; conditions: Series 1 bioconjugates
Description: as §1

[10] = 25 mg/kg single IV, COLO-205 tumor
Description: Bioconjugates containing DM4, DM1 or ABZ981 were resynthesized at a DPR of approximately 4 (Table 3) for comparative testing in a pharmacokinetic/biodistribution (PK/BD) study in mice subcutaneously implanted with COLO-205 tumor xenografts.
The volumes of administration were adjusted to deliver the same amount of bioconjugate (25 mg/kg) to each group of animals as a single IV injection into the tail vein. Blood samples were taken at 0.25 and 1 hours post-injection and blood and tissue samples were taken at 4, 8 and 24 hours to evaluate the pharmacokinetics and biodistribution of the bioconjugates (n=3 per timepoint). A commercially available ELISA kit was used to measure AFP levels and levels of free maytansine and its metabolites were measured by LC/MS.

[11] = tested on: COLO-205 colorectal cancer xenografts; test: COLO-205 colon carcinoma xenograft efficacy, daily dosing for 2 weeks; type: in vivo, mice; conditions: dosed at MTD, FIG. 2
Description: In the colon carcinoma xenograft model, 7 week old athymic male mice were implanted with 1×10^7 COLO-205 cells subcutaneously in the right flank. Mice with tumors of approximately 100 mm^3 to 200 mm^3 were randomized to receive control (vehicle) or one of the 4 bioconjugates (10 animals/group). Animals were treated daily for 2 weeks with 2 days of rest after 5 doses; tumor volume was assessed twice weekly for 60 days following implantation. FIGS. 2 and 3 reveal the valuable properties of the present bioconjugates in the COLO 205 human xenograft model of colon cancer as shown by this study.

[12] = tested on: COLO 205; test: Binding of AF-647 labeled rhAFP (ACT-101) to tumor cells; set-up: species or system human; conditions: COLO 205, metastatic colorectal adenocarcinoma
Description: (§2) Prior to testing lead compounds in vitro, the expression of the AFP receptor and ability of cells to bind and take up fluorescently-labelled rhAFP was established in the U937 cell line as well as other cell lines, as in the study summarized in Table 1 below. In this study, rhAFP was labeled using the procedures described in the product protocol from commercially available Alexa Fluor-647 (AF-647) protein labeling kits. Binding experiments were performed in 96-well plates and fluorescence was measured using a plate reader. Tumor cells were cultured in suspension or plated in cell culture media. Each tumor cell line was incubated with AF-647 labeled rhAFP at 37° C. for 0.5, 2 and 5 hours (n=3 replicates). Incubation was stopped by chilling on ice. For cells in suspension, cells and culture medium were collected separately by centrifugation and subjected to repeat wash steps. For plated cells, trypsin/EDTA was used for cell detachment.

[13] = tested on: OVCAR-3; test: as above; set-up: species or system human; conditions: OVCAR-3, ovary adenocarcinoma; 37° C., 0.5, 2 and 5 hours
Description: as §2

[14] = tested on: U-937; test: as above; set-up: species or system human; conditions: U-937, histiocytic lymphoma
Description: as §2

[15] = tested on: MCF7; test: as above; set-up: species or system human; conditions: MCF7, breast adenocarcinoma
Description: as §2

[16] = tested on: H522; test: as above; set-up: species or system human; conditions: H522, non-small cell lung adenocarcinoma
Description: as §2

[17] = tested on: SKOV-3; test: as above; set-up: species or system human; conditions: SKOV-3, ovary adenocarcinoma
Description: as §2

[18] = tested on: MOLT-4; test: as above; set-up: species or system human; conditions: MOLT-4, acute lymphoblastic leukemia
Description: as §2

[19] = tested on: ovarian cancer organoids; test: Ovarian cancer organoids from two patients; type: cell-based
[20] = tested on: OV AR3; test: Cytotoxicity of bioconjugates of varying DPR (Series 2); type: cell-based, human; conditions: Series 2 bioconjugates
Description: as §1

[21] = tested on: SKOV-3; test: as above; type: cell-based, human; conditions: Series 2 bioconjugates
Description: as §1

[22] = tested on: COLO-205; test: as above; type: cell-based, human; conditions: Series 2 bioconjugates
Description: as §1

[23] = tested on: NCl-H522; test: as above; type: cell-based, human; conditions: Series 2 bioconjugates
Description: as §1

[24] = Maximum tolerated dose in healthy mice; type: in vivo; conditions: Q1D×5 for 2 weeks, clinical observations and AST/ALT
Description: The four ABZ981-containing bioconjugates above were resynthesized and formulated in a 10 mM HEPES buffer, 5% sucrose at pH 7.5 (Table 6). Prior to testing the efficacy in tumor-bearing mice, the maximum tolerated dose (MTD) was determined for each bioconjugate in healthy mice, employing the same dosing regimen used for the efficacy study (Q1D×5 for 2 weeks) at doses of 0, 5, 10, 20 and 40 mg/kg. MTD was based on clinical observations made daily during the dosing period and elevations of liver enzymes (AST/ALT) determined at the end of treatment. […] In general, a bioconjugate with a higher DPR which carries a larger amount of toxin would be expected to have a lower MTD.

[25] = tested on: COLO-205 cells; test: CellTiter-Glo cell viability, 72 hours; type: cell-based, human
Description: Turning to Table 5, two bioconjugates of each of AFP-ABZ982 and AFP-ABZ1827 (4 in total) were prepared at DPRs of approximately 4 (“low DPR”) and 6 (“high DPR”) for efficacy testing in vivo in the COLO-205 human tumor xenograft model. Potency in the COLO-205 cell line prior to implantation was assessed. Briefly, 96 well plates were seeded with COLO-205 cells either at 5,000 or 2,500 cells per well in a total volume to 50 μL per well. Plates were incubated overnight then treated with the bioconjugate at 37° C. for 72 hours and then a CellTiter-Glo assay was performed to measure cell viability. Samples were run in triplicate.

B1: Mature [Asn233Gln]rhAFP(1-591), lacking glycosylation, produced in transgenic goats (ACT-101) (ligand)
chain: RTLHRNEYGIASILDSYQCTAEISLADLATIFFAQFVQEATYKEVSKMVKDALTAIEKPTGDEQSSGCLENQLPAFLEELCHEKEILEKYGHSDCCSQSEEGRHNCFLAHKKPTPASIPLFQVPEPVTSCEAYEEDRETFMNKFIYEIARRHPFLYAPTILLWAARYDKIIPSCCKAENAVECFQTKAATVTKELRESSLLNQHACAVMKNFGTRTFQAITVTKLSQKFTKVQFTEIQKLVLDVAHVHEHCCRGDVLDCLQDGEKIMSYICSQQDTLSNKITECCKLTTLERGQCIIHAENDEKPEGLSPNLNRFLGDRDFNQFSSGEKNIFLASFVHEYSRRHPQLAVSVILRVAKGYQELLEKCFQTENPLECQDKGEEELQKYIQESQALAKRSCGLFQKLGEYYLQNAFLVAYTKKAPQLTSSELMAITRKMAATAATCCQLSEDKLLACGEGAADIIIGHLCIRHEMTPVNPGVGQCCTSSYANRRPCFSSLVVDETYVPPAFSDDKFIFHKDLCQAQGVALQTMKQEFLINLVKQKPQITEEQLEAVIADFSGLLEKCCQGQEQEVCFAEEGQKLISKTRAALGV
modifications: fluorescent label, site not stated: Alexa Fluor-647 (Table 1), AlexaFluor488 (FIG. 1 competition), Alexa Fluor-488 or FITC (other studies)
[1]
  Highest AFP binding over 5 h Period (ng/million cells): 71
[2]
  Highest AFP binding over 5 h Period (ng/million cells): 126
[3]
  Highest AFP binding over 5 h Period (ng/million cells): 71.1
[4]
  Highest AFP binding over 5 h Period (ng/million cells): 75
[5]
  Highest AFP binding over 5 h Period (ng/million cells): 31.3
[6]
  Highest AFP binding over 5 h Period (ng/million cells): 84.3
[7]
  Highest AFP binding over 5 h Period (ng/million cells): 19

B2: HM023-2: Series 1 AFP bioconjugate, toxin printed DME (DM3), DPR 4.8 (conjugate, UniProt P02771 19-609, looked up)
Alpha-fetoprotein: B1 chain with Q233N
modifications: DM3 maytansinoid toxin conjugate, DPR 4.8
[8]; MCF-7, Series 1
  potency lower than ABZ981 and DM4 conjugates: approximately 3 fold
[8]; Series 1 bioconjugates
  IC50: 4.62 nM
[9]
  IC50: 1.6 nM

B3: AFP-ABZ981 conjugate: AFP bioconjugate releasing ABZ981, DPR 4.0, tested in the PK/BD study (conjugate, UniProt P02771 19-609, looked up)
Alpha-fetoprotein: B1 chain with Q233N
modifications: ABZ981-releasing toxin conjugate, DPR 4.0
[10]
  Peak free toxin levels normalized to AFP (toxin release in tumors): 18 % of the AFP levels in tumor
  toxin level in tumor (free maytansine plus metabolites), times higher than DM1 conjugate: approximately 3 times
  toxin level in tumor (free maytansine plus metabolites), times higher than DM4 conjugate: ~22 times

B4: AFP-ABZ982: AFP linked via di-methylated disulfide linker to ABZ-981, mixture of n 1-11 (conjugate)
chain: B1 chain
modifications: non-natural residues
[11]
  effect on the growth of the COLO-205 tumors: dramatic, inhibitory effect

B5: AFP-ABZ1827: AFP linked via mono-methylated disulfide linker to ABZ-981, mixture of n 1-11 (conjugate)
chain: B1 chain
modifications: non-natural residues
[11]
  effect on the growth of the COLO-205 tumors: dramatic, inhibitory effect

B6: ACT-101 (protein)
chain: B1 chain
[12]
  Highest AFP binding over 5 h Period: 75.0 ng/million cells
[13]
  Highest AFP binding over 5 h Period: 71.0 ng/million cells
[14]
  Highest AFP binding over 5 h Period: 84.3 ng/million cells
[15]
  Highest AFP binding over 5 h Period: 126 ng/million cells
[16]
  Highest AFP binding over 5 h Period: 71.1 ng/million cells
[17]
  Highest AFP binding over 5 h Period: 31.3 ng/million cells
[18]
  Highest AFP binding over 5 h Period: 19.0 ng/million cells
[19]
  binding and uptake of fluorescently labeled protein by organoids: bound to and was rapidly taken up
[19]; by 72 hr, even at low concentrations
  apoptosis, AnnexinV staining: innocuous to the cells

B7: AH00-3D: Series 2 AFP bioconjugate, toxin printed DME (DM3), DPR 4 (conjugate, UniProt P02771 19-609, looked up)
Alpha-fetoprotein: B1 chain with Q233N
modifications: DM3 maytansinoid toxin conjugate, DPR 4
[20]
  IC50: 5.47 nM
[21]
  IC50: 22.8 nM
[22]
  IC50: 10.7 nM
[23]
  IC50: 21.9 nM

B8: AFP-ABZ1827 low DPR: AFP-ABZ1827 bioconjugate, average DPR 3.92 (conjugate, UniProt P02771 19-609, looked up)
Alpha-fetoprotein: B1 chain with Q233N
modifications: ABZ1827 toxin conjugate, DPR 3.92
[24]
  Dose (MTD): 10 mg/kg
[25]
  IC50: 17.2 nM

B9: AFP-ABZ982 low DPR: AFP-ABZ982 bioconjugate, average DPR 3.74 (conjugate, UniProt P02771 19-609, looked up)
Alpha-fetoprotein: B1 chain with Q233N
modifications: ABZ982 toxin conjugate, DPR 3.74
[24]
  Dose (MTD): 20 mg/kg
[25]
  IC50: 12.9 nM

B10: AFP-ABZ982 high DPR: AFP-ABZ982 bioconjugate, average DPR 5.81 (conjugate, UniProt P02771 19-609, looked up)
Alpha-fetoprotein: B1 chain with Q233N
modifications: ABZ982 toxin conjugate, DPR 5.81
[24]
  Dose (MTD): 10 mg/kg
[25]
  IC50: 4.1 nM
